Each block holds one binder with its values, some of them ahead of it.
Assays:
[1] = biological target: T1, human IL-25 expressed with a C-terminal myc-myc-hexahistidine tag (human); assay: SPR Biacore, captured mAb, 25°C;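 further: biacore 4000 SPR with IL-25-MMH as analyte over purified anti-IL-25 antibodies, association and dissociation rates derived from fitting sensorgrams to a 1:1 binding model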
T1 construct: also called human IL-25-MMH; hIL-25-MMH
T1 chain: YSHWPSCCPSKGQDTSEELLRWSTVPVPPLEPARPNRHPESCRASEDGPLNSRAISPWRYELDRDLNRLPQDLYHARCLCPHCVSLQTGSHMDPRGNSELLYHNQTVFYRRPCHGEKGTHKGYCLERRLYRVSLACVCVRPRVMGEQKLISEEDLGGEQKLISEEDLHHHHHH
Procedure: (§1) Equilibrium dissociation constants (KD values) for IL-25 binding to purified anti-IL-25 antibodies were determined using a real-time surface plasmon resonance biosensor assay on a Biacore 4000 instrument (GE Healthcare). […] All the IL-25 reagents were expressed with a C-terminal myc-myc-hexahistidine tag (referred to herein as “IL-25-MMH”). […] Kinetic association (kₐ) and dissociation (kd) rate constants were determined by fitting the real-time sensorgrams to a 1:1 binding model using Scrubber 2.0c curve fitting software.

[2] = biological target: T1, human IL-25 expressed with a C-terminal …; assay: SPR Biacore, captured mAb, 37°C
Procedure: as §1

[3] = biological target: T2, mouse IL-25 expressed with a C-terminal myc-myc-hexahistidine tag (mouse); assay: SPR Biacore, captured mAb, 25°C and 37°C
T2 construct: also called mouse IL-25-MMH; mIL-25-MMH
T2 chain: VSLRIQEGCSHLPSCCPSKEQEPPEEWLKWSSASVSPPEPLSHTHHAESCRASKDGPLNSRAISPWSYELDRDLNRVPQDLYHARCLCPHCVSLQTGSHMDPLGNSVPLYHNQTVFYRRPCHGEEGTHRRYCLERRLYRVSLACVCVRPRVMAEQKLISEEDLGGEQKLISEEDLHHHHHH
Procedure: as §1

[4] = biological target: T3, rat IL-25 expressed with a C-terminal myc-myc-hexahistidine tag (rat); assay: SPR Biacore, captured mAb, 25°C and 37°C
T3 construct: also called rat IL-25-MMH
T3 chain: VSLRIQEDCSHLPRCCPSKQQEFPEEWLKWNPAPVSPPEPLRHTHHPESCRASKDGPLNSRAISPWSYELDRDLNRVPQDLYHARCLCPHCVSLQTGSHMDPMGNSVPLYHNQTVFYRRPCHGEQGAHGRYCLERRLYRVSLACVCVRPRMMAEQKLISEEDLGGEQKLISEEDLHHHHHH
Procedure: as §1

[5] = biological target: T4, human IL-25 expressed with a C-terminal myc-myc-hexahistidine tag (human); assay: cell-based or functional assay
T4 chain: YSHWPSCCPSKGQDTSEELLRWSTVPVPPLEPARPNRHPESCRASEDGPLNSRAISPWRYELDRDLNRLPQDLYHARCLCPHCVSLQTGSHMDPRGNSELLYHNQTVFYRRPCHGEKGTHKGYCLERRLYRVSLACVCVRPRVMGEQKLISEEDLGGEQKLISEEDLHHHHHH

[6] = biological target: T5, monkey IL-25 expressed with a C-terminal myc-myc-hexahistidine tag (M. fascicularis (cynomolgus monkey)); assay: cell-based or functional assay
T5 chain: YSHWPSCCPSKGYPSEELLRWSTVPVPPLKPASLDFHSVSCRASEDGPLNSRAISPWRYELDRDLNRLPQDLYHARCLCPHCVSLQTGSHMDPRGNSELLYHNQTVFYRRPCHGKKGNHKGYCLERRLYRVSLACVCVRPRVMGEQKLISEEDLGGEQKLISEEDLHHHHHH

[7] = biological target: T5, monkey IL-25 expressed with a …; assay: SPR Biacore, antibody captured, 37C;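 on 100 nM Monkey IL-25-MMH Bound (RU): biacore 4000 surface plasmon resonance biosensor measuring binding of IL-25-MMH to purified anti-IL-25 antibodies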;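 on 100 nM Mouse IL-25-MMH Bound (RU): Real-time sensorgrams of IL-25-MMH binding to purified anti-IL-25 antibodies, rate constants obtained by fitting a 1:1 binding model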
Procedure: as §1

[8] = biological target: T6, mouse IL-25 expressed with a C-terminal myc-myc-hexahistidine tag (mouse); assay: SPR Biacore, antibody captured, 25C
T6 construct: also called Mouse IL-25-MMH; mIL-25-MMH
T6 chain: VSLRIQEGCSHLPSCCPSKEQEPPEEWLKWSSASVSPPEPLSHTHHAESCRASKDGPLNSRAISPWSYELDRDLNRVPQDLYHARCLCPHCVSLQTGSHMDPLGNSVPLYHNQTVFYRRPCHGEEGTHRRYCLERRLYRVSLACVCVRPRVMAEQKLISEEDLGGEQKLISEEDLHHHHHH
Procedure: as §1

[9] = biological target: T6, mouse IL-25 expressed with a C-terminal …; assay: SPR Biacore, antibody captured, 37C;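 on 100 nM Monkey IL-25-MMH Bound (RU): biacore 4000 surface plasmon resonance biosensor measuring binding of IL-25-MMH to purified anti-IL-25 antibodies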;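 on 100 nM Mouse IL-25-MMH Bound (RU): Real-time sensorgrams of IL-25-MMH binding to purified anti-IL-25 antibodies, rate constants obtained by fitting a 1:1 binding model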
Procedure: as §1

[10] = biological target: T7, rat IL-25 expressed with a C-terminal myc-myc-hexahistidine tag (rat); assay: SPR Biacore, antibody captured, 25C;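 further: purified anti-IL-25 antibodies were tested by real-time surface plasmon resonance on a Biacore 4000, with rate constants obtained from sensorgram fits to a 1:1 binding model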
T7 construct: also called Rat IL-25-MMH
T7 chain: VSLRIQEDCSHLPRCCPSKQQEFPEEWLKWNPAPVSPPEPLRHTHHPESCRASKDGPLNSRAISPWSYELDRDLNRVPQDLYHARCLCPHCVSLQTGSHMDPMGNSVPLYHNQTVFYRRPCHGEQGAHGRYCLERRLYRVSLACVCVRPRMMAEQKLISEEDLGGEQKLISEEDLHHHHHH
Procedure: as §1

[11] = biological target: T7, rat IL-25 expressed with a C-terminal …; assay: SPR Biacore, antibody captured, 37C;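 on 100 nM Monkey IL-25-MMH Bound (RU): biacore 4000 surface plasmon resonance biosensor measuring binding of IL-25-MMH to purified anti-IL-25 antibodies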;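 on 100 nM Mouse IL-25-MMH Bound (RU): Real-time sensorgrams of IL-25-MMH binding to purified anti-IL-25 antibodies, rate constants obtained by fitting a 1:1 binding model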
Procedure: as §1

[12] = biological target: T4, human IL-25 expressed with a C-terminal …; assay: BLI Octet, hIL-25-MMH captured on anti-Penta-His sensor, 25C
Procedure: Binding competition between anti-IL-25 monoclonal antibodies was determined using a real time, label-free bio-layer interferometry assay on an Octet QK384 biosensor (Pall ForteBio Corp.).
The biosensors were washed in HBST kinetics buffer in between every step of the experiment. The real-time binding response was monitored during the course of the experiment and the binding response at the end of every step was recorded.

[13] = biological target: T4, human IL-25 expressed with a C-terminal …; assay: competition ELISA, 2 nM hIL-25-MMH binding to coated hIL-17RB-hFc
Procedure: (§2) Data analysis was performed using a sigmoidal dose-response model within Prism™ software (GraphPad). […] The absorbance values of the wells containing the highest concentration for each antibody were used to determine the percent maximum blockade.

[14] = biological target: T4, human IL-25 expressed with a C-terminal …; assay: competition ELISA, 2 nM hIL-25-MMH binding to coated hIL-17RB-hFc; (*) below theoretical bottom of the assay
Procedure: as §2

[15] = biological target: T8, monkey IL-25 expressed with a C-terminal myc-myc-hexahistidine tag (M. fascicularis (cynomolgus monkey)); assay: SPR Biacore, captured mAb, 25°C;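 further: Real-time surface plasmon resonance on a Biacore 4000, with IL-25-MMH binding to purified anti-IL-25 antibodies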
T8 construct: also called monkey IL-25-MMH; MfIL-25-MMH
T8 chain: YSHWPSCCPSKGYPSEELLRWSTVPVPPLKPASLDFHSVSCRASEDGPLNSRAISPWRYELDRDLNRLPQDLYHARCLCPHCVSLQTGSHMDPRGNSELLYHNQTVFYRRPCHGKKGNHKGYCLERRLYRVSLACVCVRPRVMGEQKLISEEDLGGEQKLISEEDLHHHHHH
Procedure: as §1

B1: H2M11008N (antibody, V domains shown)
VH: QVQLQESGPGLVKPSETLSLTCTVSGGSISSHYWSWIRQPPGKGLEWIGFIYYSGSTNFNPSLKSRVTISIDTSKNQFSLKLSSVTAADTAVYYCARHDYNDYELNYFDLWGRGTLASVSS
VL: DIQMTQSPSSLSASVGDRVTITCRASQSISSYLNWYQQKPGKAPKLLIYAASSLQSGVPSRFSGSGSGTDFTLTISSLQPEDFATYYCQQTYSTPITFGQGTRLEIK
notes: also called H2aM11008N
100 nM Human IL-25-MMH Bound (RU) [1]: 48 RU
Kd [1]: 0.435 nM
koff [1]: 0.00021 s⁻¹
kon [1]: 482000 M⁻¹ s⁻¹
t½ [1]: 55 min
100 nM Human IL-25-MMH Bound (RU) [2]: 60 RU
Kd [2]: 1.08 nM
koff [2]: 0.000793 s⁻¹
kon [2]: 734000 M⁻¹ s⁻¹
t½ [2]: 15 min
binding result [3]: no binding (tested: 100 nM)
binding result [4]: no binding (tested: 100 nM)

B2: H4H10903P (antibody, human IgG4, V domains shown)
VH: QVQLQESGPGLVKPSETLSLTCTVSGGSINSYSWTWIRQPPGKGLEWIGNIYNSENTNYNPSLKSRVTISVDTSKSQVSLKLNSVTAADTAVYYCARTYNWNYEIGAMGVWGQGTTVTVSS
VL: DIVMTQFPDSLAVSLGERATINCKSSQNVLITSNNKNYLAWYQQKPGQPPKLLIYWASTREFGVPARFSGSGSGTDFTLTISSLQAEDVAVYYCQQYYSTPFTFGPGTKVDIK
notes: H4H prefix = human IgG4 Fc
IC50, luciferase reporter cells, 5 pM hIL-25-MMH [5]: 1.4e-10 M
IC50, luciferase reporter cells, 12 pM MfIL-25-MMH [6]: 6e-11 M
100 nM Monkey IL-25-MMH Bound (RU) [7]: 66 RU
Kd [7]: 0.0374 nM
koff [7]: 6.59e-05 s⁻¹
kon [7]: 1.76e+06 M⁻¹ s⁻¹
t½ [7]: 175 min
100 nM Mouse IL-25-MMH Bound (RU) [8]: 0 RU
binding result [8]: no binding (tested: 100 nM)
100 nM Mouse IL-25-MMH Bound (RU) [9]: 1 RU
100 nM Rat IL-25-MMH Bound (RU) [10]: 1 RU
binding result [10]: no binding (tested: 100 nM)
100 nM Rat IL-25-MMH Bound (RU) [11]: 2 RU
50 ug/mL mAb-1 Binding (nm) [12]: 1.03 nm
% Maximum blocking of 200 nM antibody [13]: 91%
IC50 [14]: 0.24 nM

B3: H1M11009N (antibody, mouse IgG1, V domains shown)
VH: EVQLVESGGGLVEPGGSLRLSCVASGFTFSNAWMNWVRQAPGKGLEWVGHIERKTDGGTTDFAAPVKGRFTISRDDSKNTLYLQMNSLKTEDTAVYYCTTVGPYSVPFDYWGQGTLVTVSS
VL: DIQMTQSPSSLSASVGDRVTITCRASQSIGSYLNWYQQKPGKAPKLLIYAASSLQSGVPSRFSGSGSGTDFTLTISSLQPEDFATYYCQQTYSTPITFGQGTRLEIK
notes: also called 12
100 nM Human IL-25-MMH Bound (RU) [1]: 30 RU
Kd [1]: 12.5 nM
koff [1]: 0.00304 s⁻¹
kon [1]: 242000 M⁻¹ s⁻¹
t½ [1]: 4 min
100 nM Human IL-25-MMH Bound (RU) [2]: 30 RU
Kd [2]: 21.1 nM
koff [2]: 0.00829 s⁻¹
kon [2]: 393000 M⁻¹ s⁻¹
t½ [2]: 1.4 min
binding result [3]: no binding (tested: 100 nM)
binding result [4]: no binding (tested: 100 nM)

B4: H4H10864P (antibody, human IgG4, V domains shown)
VH: QVQLQESGPGLVKPSETLSLTCTVSGGSISNYFWSWIRQPPGKGLEWIGFNYNSGSTNYNPSLKSRVTISVDTSKNQFSLKLSSVTAADTAVYYCARGYNWNYEIAWFDPWGQGTLVTVSS
VL: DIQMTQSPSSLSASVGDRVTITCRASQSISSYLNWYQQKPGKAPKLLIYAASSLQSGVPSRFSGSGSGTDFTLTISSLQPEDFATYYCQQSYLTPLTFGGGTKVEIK
100 nM Human IL-25-MMH Bound (RU) [1]: 75 RU
Kd [1]: 0.0168 nM
koff [1]: 4.51e-05 s⁻¹
kon [1]: 2.68e+06 M⁻¹ s⁻¹
t½ [1]: 256 min
100 nM Human IL-25-MMH Bound (RU) [2]: 94 RU
Kd [2]: 0.0526 nM
koff [2]: 0.000196 s⁻¹
kon [2]: 3.73e+06 M⁻¹ s⁻¹
t½ [2]: 59 min
100 nM Monkey IL-25-MMH Bound (RU) [15]: 78 RU
Kd [15]: 0.0128 nM
koff [15]: 4.7e-05 s⁻¹
kon [15]: 3.68e+06 M⁻¹ s⁻¹
t½ [15]: 246 min
binding result [3]: no binding (tested: 100 nM)
binding result [4]: no binding (tested: 100 nM)

B7: H4H10900P (antibody, human IgG4, V domains shown)
VH: QVQLQESGPGLVRPSETLSLICTVSGGSINSYYWSWIRQPPGKGLEWIGYIYYSGSTNYNPSLKSRVTISGDTSKNQFSLKLSSVTAADTAVYYCARGVIWNYELREFDYWGQGTLVTVSS
VL: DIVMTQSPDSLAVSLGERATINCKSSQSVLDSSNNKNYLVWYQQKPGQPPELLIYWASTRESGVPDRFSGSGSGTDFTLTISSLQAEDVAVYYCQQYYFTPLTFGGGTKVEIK
100 nM Human IL-25-MMH Bound (RU) [1]: 43 RU
Kd [1]: 0.0158 nM
koff [1]: 2.75e-05 s⁻¹
kon [1]: 1.74e+06 M⁻¹ s⁻¹
t½ [1]: 421 min
100 nM Human IL-25-MMH Bound (RU) [2]: 51 RU
Kd [2]: 0.035 nM
koff [2]: 9.91e-05 s⁻¹
kon [2]: 2.83e+06 M⁻¹ s⁻¹
t½ [2]: 117 min
100 nM Monkey IL-25-MMH Bound (RU) [15]: 45 RU
Kd [15]: 0.00402 nM
koff [15]: 1.18e-05 s⁻¹
kon [15]: 2.94e+06 M⁻¹ s⁻¹
t½ [15]: 980 min
binding result [3]: no binding (tested: 100 nM)
binding result [4]: no binding (tested: 100 nM)

Now from value to binder:

IC50, luciferase reporter cells, 5 pM hIL-25-MMH (second assay day) [5]: 2.7e-11 M
IC50, luciferase reporter cells, 12 pM MfIL-25-MMH [6]: 4.7e-11 M
100 nM Monkey IL-25-MMH Bound (RU) [7]: 73 RU
Kd [7]: 0.0431 nM
koff [7]: 0.00013 s⁻¹
kon [7]: 3.01e+06 M⁻¹ s⁻¹
t½ [7]: 89 min
100 nM Mouse IL-25-MMH Bound (RU) [8]: 1 RU
binding result [8]: no binding (tested: 100 nM)
100 nM Mouse IL-25-MMH Bound (RU) [9]: 2 RU
100 nM Rat IL-25-MMH Bound (RU) [10]: 2 RU
binding result [10]: no binding (tested: 100 nM)
100 nM Rat IL-25-MMH Bound (RU) [11]: 3 RU
50 ug/mL mAb-1 Binding (nm) [12]: 0.88 nm
% Maximum blocking of 200 nM antibody [13]: 89%
IC50 [14]: 0.14 nM
B5: H4H10906P (antibody, human IgG4, V domains shown)
VH: QVQLQESGPGLVKPSETLSLTCTVSGGSISSYYWSWIRQPPGKGLEWIGFIYYSGSTNYNPSLKSRVTISVDTSKNQFSLKLSSVTAADTAVYYCARHDSDYELYGMDVWGQGTTVTVSS
VL: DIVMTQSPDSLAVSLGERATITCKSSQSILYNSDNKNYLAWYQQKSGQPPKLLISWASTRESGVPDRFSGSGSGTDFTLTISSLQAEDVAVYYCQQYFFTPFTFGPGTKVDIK
notes: H4H prefix = human IgG4 Fc

IC50, luciferase reporter cells, 5 pM hIL-25-MMH [5]: 2.2e-10 M
IC50, luciferase reporter cells, 12 pM MfIL-25-MMH [6]: 1.4e-10 M
100 nM Monkey IL-25-MMH Bound (RU) [7]: 50 RU
Kd [7]: 0.0671 nM
koff [7]: 0.000101 s⁻¹
kon [7]: 1.51e+06 M⁻¹ s⁻¹
t½ [7]: 114 min
100 nM Mouse IL-25-MMH Bound (RU) [8]: 10 RU
Kd [8]: 58.7 nM
koff [8]: 0.0115 s⁻¹
kon [8]: 196000 M⁻¹ s⁻¹
t½ [8]: 1 min
100 nM Mouse IL-25-MMH Bound (RU) [9]: 8 RU
Kd [9]: 137 nM
koff [9]: 0.0376 s⁻¹
kon [9]: 275000 M⁻¹ s⁻¹
t½ [9]: 0.3 min
100 nM Rat IL-25-MMH Bound (RU) [10]: 10 RU
Kd [10]: 66.9 nM
koff [10]: 0.0147 s⁻¹
kon [10]: 220000 M⁻¹ s⁻¹
t½ [10]: 0.8 min
100 nM Rat IL-25-MMH Bound (RU) [11]: 8 RU
Kd [11]: 85.4 nM
koff [11]: 0.0204 s⁻¹
kon [11]: 238000 M⁻¹ s⁻¹
t½ [11]: 0.6 min
50 ug/mL mAb-1 Binding (nm) [12]: 1.74 nm
% Maximum blocking of 200 nM antibody [13]: 87%
IC50 [14]: 0.55 nM
B6: H4H10907P (antibody, human IgG4, V domains shown)
VH: EVQLVESGGGLVQPGGSLRLSCAASGFTFSNYDIHWVRQVPGKGLEWISTIGSAGDTFYPGSVKGRFTISRENAKNSLYLQMNSLRAGDSAVYYCARGDNWNYVSWFFDLWGRGTLVTVSS
VL: DIQLTQSPSFLSTSVGDRVTITCWASQDISSFLAWYQQKPGKAPKLLIYAASVLQSGVPSRFSGSGSGTEFTLTISSLQPEDFATYYCQQVNSYPITFGQGTRLEIK
notes: H4H prefix = human IgG4 Fc

— patent US20160083466A1 (Regeneron, published 2016)
